From US20220049008A1 (MULTITUDE, published 2022)
Several values for one entry are separate records, joined by “and”; a condition that tells them apart may be missing. Equal entries are not always repeated. Each block holds one binder with its values, some of them ahead of it.

Experiments:
[1] = target: T1, CD44 v7/8 (human CD44 v7/8 splice variant) on CD44+ cells (human, UniProt P16070 21-742); experiment: cell-based or functional assay
[2] = target: T1, CD44 v7/8 (human CD44 v7/8 splice …); experiment: flow cytometry on A253 cells; HIS029 (parental antibody), A253 cells
[3] = target: T1, CD44 v7/8 (human CD44 v7/8 splice …); experiment: flow cytometry on CD44+ A253 cells, antibody titration
[4] = target: T1, CD44 v7/8 (human CD44 v7/8 splice …); experiment: flow cytometry on A253 cells; humanized HIS029, A253 cells

T1 sequence (P16070 21-742 limits assumed, change not shown): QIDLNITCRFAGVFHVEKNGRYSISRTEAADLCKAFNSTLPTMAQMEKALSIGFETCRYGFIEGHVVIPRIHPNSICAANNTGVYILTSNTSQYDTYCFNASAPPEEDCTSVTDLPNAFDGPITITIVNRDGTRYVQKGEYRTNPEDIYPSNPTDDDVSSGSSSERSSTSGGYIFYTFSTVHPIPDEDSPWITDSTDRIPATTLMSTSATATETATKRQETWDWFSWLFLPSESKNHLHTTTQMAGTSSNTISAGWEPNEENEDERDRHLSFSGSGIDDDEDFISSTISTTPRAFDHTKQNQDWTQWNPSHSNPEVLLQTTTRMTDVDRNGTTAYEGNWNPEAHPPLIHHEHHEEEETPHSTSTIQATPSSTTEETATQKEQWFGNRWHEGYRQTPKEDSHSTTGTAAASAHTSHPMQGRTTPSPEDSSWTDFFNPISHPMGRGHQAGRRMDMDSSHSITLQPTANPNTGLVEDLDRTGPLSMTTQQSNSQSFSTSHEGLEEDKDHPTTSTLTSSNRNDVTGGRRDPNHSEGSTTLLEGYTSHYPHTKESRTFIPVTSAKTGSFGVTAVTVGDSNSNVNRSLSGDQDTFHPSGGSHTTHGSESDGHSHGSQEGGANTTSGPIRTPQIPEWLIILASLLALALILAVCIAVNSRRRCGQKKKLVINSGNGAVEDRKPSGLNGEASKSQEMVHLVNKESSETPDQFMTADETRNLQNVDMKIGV

B1: HIS029-vc-MMAE (other)
VH: QVHLQQPGAELVRPGASVKLSCKASGYTFTNYWINWVKQRPGQGLEWIGNIYPSDSYTNYNQKFKDKATLTVDKSSSTAYVHLSSPTSEDSAVYYCTKWGDSDYWGQGTTLTVSS
VL: DIKMTQSPSSMYASLGERVTITCKASQDINRYLRWFQQKPGKSPKTLIYRANRLVDGVPSRFSGSGSGQDYSLTISSLEYEDMGIYYCLQYDEFPFTFGSGTKLEIK
modifications: monomethyl auristatin E coupled through a maleimidocaproyl-Val-Cit-PAB linker by a thiol-based reaction; sites not stated
- cell viability, IC50 (A253 cells) [1]: 797 pM
- cell viability, IC50 (BXPC3 cells) [1]: 189 pM
- cell viability, IC50 (D562 cells) [1]: 630 pM
- cell viability, IC50 (NCI-H520 cells) [1]: 588 pM

- Kd [2]: 35 nM
- EC50 (read off the curve) [3]: ~40 nM
B2: HIS029 (antibody, V domains shown)
VH: B1 VH
VL: B1 VL
notes: Monoclonal antibody from a hybridoma, V regions amplified with mouse Ig primers; also called anti-CD44 v7/8 antibody; antibody clone HIS029

- Kd [4]: 36 nM
- EC50 (read off the curve) [3]: ~40 nM and ~60 nM
B3: Humanized HIS029 (antibody, V domains shown)
VH: QVQLVQSGSELKKPGASVKVSCKASGYTFTNYWINWVRQAPGQGLEWMGNIYPSDSYTNYNQKFKDRAVFSVDKSVSTAYLQISSLKAEDTAVYYCTKWGDSDYWGQGTTVTVSS
VL: DIQMTQSPSSLSASVGDRVTITCKASQDINRYLRWFQQKPGKSPKTLIYRANRLVDGVPSRFSGSGSGQDYTLTISSLQPEDFATYYCLQYDEFPFTFGQGTKLEIK
notes: also called humanized HIS029 antibody
